Reference: patent publication US20250277030A1 (Zymeworks, published 2025)
Like-named read-outs stand apart in the source and are kept apart here.

What was measured:
[1] = target: T1, human sodium-dependent phosphate transporter 2B (NaPi2b) (human, UniProt O95436 1-690); assay: flow cytometry, HEK293-6e cells transfected with human NaPi2b
T1 construct: UniProt ID is given as 095436 [sic]; also called hNaPi2b; Hu NaPi2b
T1 sequence: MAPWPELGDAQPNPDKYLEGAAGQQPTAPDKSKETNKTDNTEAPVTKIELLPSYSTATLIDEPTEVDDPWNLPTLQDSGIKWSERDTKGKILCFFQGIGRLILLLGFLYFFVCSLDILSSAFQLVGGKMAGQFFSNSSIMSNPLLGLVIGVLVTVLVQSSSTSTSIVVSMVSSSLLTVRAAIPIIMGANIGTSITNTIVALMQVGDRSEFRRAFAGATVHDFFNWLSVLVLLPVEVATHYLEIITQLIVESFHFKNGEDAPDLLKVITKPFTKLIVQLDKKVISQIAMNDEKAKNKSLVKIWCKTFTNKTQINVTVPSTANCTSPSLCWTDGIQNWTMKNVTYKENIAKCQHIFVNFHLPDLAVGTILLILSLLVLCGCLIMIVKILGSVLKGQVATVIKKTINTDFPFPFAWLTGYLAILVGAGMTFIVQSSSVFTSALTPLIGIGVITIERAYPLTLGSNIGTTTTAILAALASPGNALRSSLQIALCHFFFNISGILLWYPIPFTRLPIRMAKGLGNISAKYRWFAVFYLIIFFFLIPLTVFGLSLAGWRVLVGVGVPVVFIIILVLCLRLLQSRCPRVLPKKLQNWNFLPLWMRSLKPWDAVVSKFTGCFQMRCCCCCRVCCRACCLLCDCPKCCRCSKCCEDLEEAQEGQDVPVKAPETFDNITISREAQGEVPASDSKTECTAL
Description: (§1) The binding cross-reactivity of humanized antibody variant v29456 to human, cynomolgus and mouse NaPi2b was assessed by flow cytometry using HEK293-6e transfected cells.
(§2) Briefly, HEK293-6e cells were transfected for ˜24 hours to transiently express human NaPi2b, cynomolgus or mouse NaPi2b, at 1 μg of DNA per 1 million cells. Following transfection, 50,000 cells per well were seeded in V-bottom 96-well plates and incubated with 200 nM of primary antibody for 18-24 hours at 4° C. to prevent internalization. Post-incubation, cells were washed and stained with anti-Human IgG Fc AF647 conjugate (Jackson Immuno Research Labs, West Grove, PA, Cat. No. 109-605-098, Lot. No. 124868) at 4° C. for 1 hour. Following staining and washing, fluorescence was detected by flow cytometry on BD LSRFortessa™ Cell Analyzer (BD Biosciences, Franklin Lake, NJ) with 10,000 minimum events collected per well. The AF647/APC-A GeoMean (fluorescence signal geometric mean, proportional to anti-Human AF647 binding) was calculated for the live singlet cell population for each primary antibody using FlowJo™ v8 software (BD Biosciences, Franklin Lake, NJ). The Bmax and Kd of each primary antibody were calculated using GraphPad Prism Version 9 (GraphPad Software, San Diego, CA)

cynomolgus monkey NaPi2b [2] = target: T2, cynomolgus monkey NaPi2b (cynomolgus monkey, UniProt O95436 1-690 (human entry)); assay: flow cytometry, HEK293-6e cells transfected with cynomolgus NaPi2b
T2 construct: Transiently expressed on HEK293-6e cells; also called Cyno NaPi2b
T2 chain: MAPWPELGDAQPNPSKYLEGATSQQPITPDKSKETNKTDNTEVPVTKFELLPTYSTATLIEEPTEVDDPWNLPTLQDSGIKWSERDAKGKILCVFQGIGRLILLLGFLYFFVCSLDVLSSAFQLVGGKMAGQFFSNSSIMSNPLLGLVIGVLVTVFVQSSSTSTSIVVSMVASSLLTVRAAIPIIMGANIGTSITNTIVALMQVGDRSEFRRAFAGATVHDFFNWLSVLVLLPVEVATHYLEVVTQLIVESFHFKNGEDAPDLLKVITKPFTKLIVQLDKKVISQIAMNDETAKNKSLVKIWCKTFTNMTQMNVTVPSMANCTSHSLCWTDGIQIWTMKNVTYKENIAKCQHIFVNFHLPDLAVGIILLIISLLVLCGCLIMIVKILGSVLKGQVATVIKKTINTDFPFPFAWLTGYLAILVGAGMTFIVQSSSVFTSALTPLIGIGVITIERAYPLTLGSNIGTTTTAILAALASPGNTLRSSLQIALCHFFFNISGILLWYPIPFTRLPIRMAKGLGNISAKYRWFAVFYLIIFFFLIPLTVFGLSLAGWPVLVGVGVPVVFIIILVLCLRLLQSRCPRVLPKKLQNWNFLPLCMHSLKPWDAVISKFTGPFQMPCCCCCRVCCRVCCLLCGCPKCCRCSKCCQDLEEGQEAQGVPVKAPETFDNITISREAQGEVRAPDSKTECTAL
Description: as §1, §2

[3] = target: T1, human sodium-dependent phosphate …; assay: flow cytometry, HEK293-6e cells transfected with human NaPi2b; apparent Kd
Description: as §1, §2

[4] = target: T1, human sodium-dependent phosphate …; assay: as above; remark: listed apart in the source
Description: The binding cross-reactivity of humanized antibody variant v38591 to human NaPi2b, NaPi2a, and NaPi2c was assessed by flow cytometry using HEK293-6e transfected cells.
Following transfection, cells were seeded at 50,000 cells/well in conical-bottom 96-well plates and treated with test antibody for 24 hours at 4° C. to prevent internalization. Following incubation, cells were washed and stained with anti-Human IgG Fc AF647 conjugate (Jackson Immuno Research Labs, West Grove, PA; Cat. No. 109-605-098) or anti-Rabbit IgG F(ab″)2 AF647 conjugate (Jackson Immuno Research Labs, West Grove, PA; Cat. No. 111-605-047). Following incubation and washing, fluorescence was detected by flow cytometry on a BD LSRFortessa™ Cell Analyzer (BD Biosciences, Franklin Lake, NJ) with 1,000 minimum events collected per well. The AF647/APC-A GeoMean (fluorescence signal geometric mean, proportional to anti-Human AF647 binding) was calculated for the live cell population using FlowJo™ Version 10.8.1 (BD Biosciences, Franklin Lake, NJ) and plotted for each test antibody using GraphPad Prism Version 9 (GraphPad Software, San Diego, CA).

cynomolgus monkey NaPi2b [5] = target: T2, cynomolgus monkey NaPi2b; assay: flow cytometry, HEK293-6e cells transfected with cynomolgus NaPi2b; apparent Kd
Description: as §1, §2

mouse NaPi2b = target: T3, mouse NaPi2b (mouse, UniProt Q9DBP0 1-697); assay: flow cytometry, HEK293-6e cells transfected with mouse NaPi2b; apparent Kd above the highest concentration tested
T3 construct: Transiently expressed on HEK293-6e cells; also called Ms NaPi2b
T3 sequence: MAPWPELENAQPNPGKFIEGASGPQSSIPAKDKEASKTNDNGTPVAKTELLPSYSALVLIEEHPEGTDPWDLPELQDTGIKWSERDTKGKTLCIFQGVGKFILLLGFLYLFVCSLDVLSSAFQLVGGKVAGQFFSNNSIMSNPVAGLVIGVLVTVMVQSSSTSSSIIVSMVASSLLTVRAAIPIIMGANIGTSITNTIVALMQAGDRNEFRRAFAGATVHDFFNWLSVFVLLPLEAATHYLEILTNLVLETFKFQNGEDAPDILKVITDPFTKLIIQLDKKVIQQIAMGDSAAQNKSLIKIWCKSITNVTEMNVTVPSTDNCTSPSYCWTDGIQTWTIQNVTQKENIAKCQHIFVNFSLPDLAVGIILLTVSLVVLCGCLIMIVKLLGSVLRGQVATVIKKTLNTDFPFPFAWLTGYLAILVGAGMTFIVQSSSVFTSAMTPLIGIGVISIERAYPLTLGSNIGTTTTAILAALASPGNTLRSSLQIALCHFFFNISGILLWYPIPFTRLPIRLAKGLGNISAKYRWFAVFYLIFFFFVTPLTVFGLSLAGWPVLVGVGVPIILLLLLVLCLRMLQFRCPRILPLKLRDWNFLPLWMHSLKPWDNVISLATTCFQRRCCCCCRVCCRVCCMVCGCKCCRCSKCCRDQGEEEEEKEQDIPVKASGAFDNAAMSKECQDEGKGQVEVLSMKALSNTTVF

- Bmax (APC-A GeoMean) [1]: 1900 APC-A GeoMean
- Bmax (APC-A GeoMean) (cynomolgus monkey NaPi2b [2]): 2360 APC-A GeoMean
- Kd [3]: 1.98 nM
- Kd [4]: 1.51 nM
- Kd (cynomolgus monkey NaPi2b [5]): 31 nM
- Kd (mouse NaPi2b): > 200 nM
B1: v18992, reference anti-NaPi2b antibody MX35 (antibody, human IgG1, kappa)
heavy 1: GQVQLVQSGAEVVKPGASVKMSCKASGYTFTGYNIHWVKQAPGQGLEWIGAIYPGNGDTSYKQKFRGRATLTADTSTSTVYMELSSLRSEDSAVYYCARGETARATFAYWGQGTLVTVSSASTKGPSVFPLAPSSKSTSGGTAALGCLVKDYFPEPVTVSWNSGALTSGVHTFPAVLQSSGLYSLSSVVTVPSSSLGTQTYICNVNHKPSNTKVDKKVEPKSCDKTHTCPPCPAPELLGGPSVFLFPPKPKDTLMISRTPEVTCVVVDVSHEDPEVKFNWYVDGVEVHNAKTKPREEQYNSTYRVVSVLTVLHQDWLNGKEYKCKVSNKALPAPIEKTISKAKGQPREPQVYVYPPSRDELTKNQVSLTCLVKGFYPSDIAVEWESNGQPENNYKTTPPVLDSDGSFALVSKLTVDKSRWQQGNVFSCSVMHEALHNHYTQKSLSLSPG
heavy 2: not shown
light: GDIQMTQSPSSLSASVGDRVTITCSASQDIGNFLNWYQQKPGKTVKVLIYYTSSLYSGVPSRFSGSGSGTDYTLTISSLQPEDFATYYCQQYSKLPLTFGQGTKLELKRTVAAPSVFIFPPSDEQLKSGTASVVCLLNNFYPREAKVQWKVDNALQSGNSQESVTEQDSKDSTYSLSSTLTLSKADYEKHKVYACEVTHQGLSSPVTKSFNRGEC
